Target: the molecule itself
Assay: crystal structure

B1: SNX1 (301–522) (domain or fragment)
chain: KMNESDIWFEEKLQEVECEEQRLRKLHAVVETLVNHRKELALNTAQFAKSLAMLGSSEDNTALSRALSQLAEVEEKIEQLHQEQANNDFFLLAELLSDYIRLLAIVRAAFDQRMKTWQRWQDAQATLQKKREAEARLLWANKPDKLQQAKDEILEWESRVTQYERDFERISTVVRKEVIRFEKEKSKDFKNHVIKYLETLLYSQQQLAKYWEAFLPEAKAIS
  binding result: binds
